Results from paper doi:10.1101/2022.02.08.479534, “FoxP3 can fold into two distinct dimerization states with divergent functional implications for T cell homeostasis”.

Key:
NusA-FoxP4RBR-forkhead = biological target: T1, NusA-FoxP4RBR-forkhead (Mus musculus, UniProt Q9DBY0 418-577); assay: EMSA; equal to sFKHM; EMSA: 0.2 uM DNA, 20 mM Tris pH 7.5, 150 mM NaCl, 1.5 mM MgCl2, 2 mM DTT, 30 min at 4 C; anti-HA bead DNA pull-down: 20 min at room temperature; the EMSA IR-FKHM4g length is taken as 31 bp; conditions: protein: recombinant; tags: His6-NusA; blunt
T1 sequence: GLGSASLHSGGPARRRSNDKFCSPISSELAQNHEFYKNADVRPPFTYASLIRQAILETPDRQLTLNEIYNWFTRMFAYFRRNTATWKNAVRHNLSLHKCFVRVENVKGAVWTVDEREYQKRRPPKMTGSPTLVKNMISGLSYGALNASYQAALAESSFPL

[1] = biological target: T2, NusA-FoxP3RBR-forkhead A372S (Mus musculus, UniProt Q99JB6 284-423, A372S); assay: EMSA; EMSA: 0.2 uM DNA, 20 mM Tris pH 7.5, 150 mM NaCl, 1.5 mM MgCl2, 2 mM DTT, 30 min at 4 C; anti-HA bead DNA pull-down: 20 min at room temperature; the EMSA IR-FKHM4g length is taken as 31 bp; conditions: protein: recombinant; tags: His6-NusA; blunt
T2 sequence: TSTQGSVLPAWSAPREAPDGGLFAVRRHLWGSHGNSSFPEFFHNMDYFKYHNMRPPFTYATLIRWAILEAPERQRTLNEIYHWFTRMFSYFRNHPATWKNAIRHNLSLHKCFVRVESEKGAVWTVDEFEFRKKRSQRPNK

FoxP3ΔN = biological target: T3, FoxP3ΔN (Mus musculus, UniProt Q99JB6 188-423); assay: as above; conditions: protein: recombinant; tags: His6-NusA cleaved (HRV3C); chain copies: 2; blunt
T3 sequence: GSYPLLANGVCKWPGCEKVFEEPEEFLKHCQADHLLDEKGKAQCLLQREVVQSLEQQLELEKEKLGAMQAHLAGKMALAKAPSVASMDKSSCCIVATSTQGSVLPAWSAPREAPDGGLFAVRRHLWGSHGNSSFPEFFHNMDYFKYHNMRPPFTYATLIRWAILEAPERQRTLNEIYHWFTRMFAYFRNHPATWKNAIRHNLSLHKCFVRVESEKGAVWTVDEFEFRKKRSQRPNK

[2] = biological target: T4, NusA-FoxP3RBR-forkhead A372G (Mus musculus, UniProt Q99JB6 284-423, A372G); assay: as above; conditions: protein: recombinant; tags: His6-NusA; blunt
T4 sequence: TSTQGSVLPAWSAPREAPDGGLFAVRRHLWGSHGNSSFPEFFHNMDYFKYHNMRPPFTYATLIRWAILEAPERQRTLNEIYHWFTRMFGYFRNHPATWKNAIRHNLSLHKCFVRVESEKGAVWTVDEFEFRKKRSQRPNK

FoxP3ΔN' = biological target: T5, FoxP3ΔN' (Mus musculus, UniProt Q99JB6 204-417, C217S;C231S;del277-304); assay: as above; conditions: protein: recombinant; tags: His6-NusA cleaved; chain copies: 2; blunt
T5 sequence: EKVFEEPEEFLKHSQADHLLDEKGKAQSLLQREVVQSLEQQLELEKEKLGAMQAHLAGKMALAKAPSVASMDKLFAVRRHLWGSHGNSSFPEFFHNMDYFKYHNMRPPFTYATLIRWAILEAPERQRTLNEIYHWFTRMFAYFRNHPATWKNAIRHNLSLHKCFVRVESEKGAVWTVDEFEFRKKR

NusA-FoxP3RBR-forkhead = biological target: T6, NusA-FoxP3RBR-forkhead (Mus musculus, UniProt Q99JB6 284-423); assay: as above; conditions: protein: recombinant; tags: His6-NusA; blunt
T6 sequence: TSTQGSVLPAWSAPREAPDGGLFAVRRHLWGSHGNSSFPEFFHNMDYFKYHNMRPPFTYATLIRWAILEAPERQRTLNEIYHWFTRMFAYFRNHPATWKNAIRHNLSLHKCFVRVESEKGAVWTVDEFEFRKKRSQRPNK

FoxP3RBR-forkhead = biological target: T7, FoxP3RBR-forkhead (Mus musculus, UniProt Q99JB6 284-423); assay: as above; conditions: protein: recombinant; tags: His6-NusA cleaved (HRV3C); blunt
T7 sequence: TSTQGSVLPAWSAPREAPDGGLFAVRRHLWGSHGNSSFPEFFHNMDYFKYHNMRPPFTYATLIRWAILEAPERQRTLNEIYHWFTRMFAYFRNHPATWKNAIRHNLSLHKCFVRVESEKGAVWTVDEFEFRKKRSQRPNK

FoxP3ΔN'' = biological target: T8, FoxP3ΔN'' (Mus musculus, UniProt Q99JB6 204-417, C217S;C231S;del277-314); assay: as above; conditions: protein: recombinant; tags: His6-NusA cleaved; chain copies: 2; blunt
T8 sequence: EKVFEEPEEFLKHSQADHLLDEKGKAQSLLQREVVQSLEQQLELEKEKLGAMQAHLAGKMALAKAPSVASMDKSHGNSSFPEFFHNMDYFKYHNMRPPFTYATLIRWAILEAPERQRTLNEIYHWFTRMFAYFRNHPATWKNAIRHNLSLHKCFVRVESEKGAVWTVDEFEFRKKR

Measured: binding result

B1: IR-FKHM4g (31bp) (dsDNA)
DNA 1: TTAGGAAAATTTGTTTACTCGAGTAAACAAA
DNA 2: TTTGTTTACTCGAGTAAACAAATTTTCCTAA
binds: all assays above
